Measurements as given in doi:10.1101/2021.04.25.441314.
Where two headings read alike, the source gives them in different places.

Legend:
Hfq wt [1] = biological target: T1, Hfq wt (Escherichia coli, UniProt P0A6X3 1-102); assay: filter binding
Hfq R16A (rim) [2] = biological target: T2, Hfq R16A (rim) (Escherichia coli, UniProt P0A6X3 1-102, R16A); assay: filter binding
Hfq wt [3] = biological target: T1, Hfq wt; assay: competition
Hfq K56A (proximal face) = Hfq K56A (proximal face) (Escherichia coli, UniProt P0A6X3 1-102, K56A); assay: filter binding
Hfq wt [4] = biological target: T1, Hfq wt; assay: competition; remark: listed apart in the source
Hfq Y25D (distal face) [5] = biological target: T3, Hfq Y25D (distal face) (Escherichia coli, UniProt P0A6X3 1-102, Y25D); assay: filter binding
Hfq wt [6] = biological target: T1, Hfq wt; assay: filter binding; remark: listed apart in the source
Hfq wt [7] = biological target: T1, Hfq wt; assay: filter binding; remark: listed apart in the source
Hfq R16A (rim) [8] = biological target: T2, Hfq R16A (rim); assay: filter binding; remark: listed apart in the source
Hfq Y25D (distal face) [9] = biological target: T3, Hfq Y25D (distal face); assay: filter binding; remark: listed apart in the source
Hfq wt [10] = biological target: T1, Hfq wt; assay: filter binding; remark: listed apart in the source
Hfq R16A (rim) [11] = biological target: T2, Hfq R16A (rim); assay: filter binding; remark: listed apart in the source
Hfq Y25D (distal face) [12] = biological target: T3, Hfq Y25D (distal face); assay: filter binding; remark: listed apart in the source
Hfq Y25D (distal face) [13] = biological target: T3, Hfq Y25D (distal face); assay: filter binding; remark: listed apart in the source
Hfq wt [14] = biological target: T1, Hfq wt; assay: filter binding; remark: listed apart in the source
Hfq R16A (rim) [15] = biological target: T2, Hfq R16A (rim); assay: filter binding; remark: listed apart in the source
Hfq R16A (rim) [16] = biological target: T2, Hfq R16A (rim); assay: filter binding; remark: listed apart in the source
Hfq Y25D (distal face) [17] = biological target: T3, Hfq Y25D (distal face); assay: filter binding; remark: listed apart in the source
Hfq wt [18] = biological target: T1, Hfq wt; assay: filter binding; remark: listed apart in the source
Hfq Y25D (distal face) [19] = biological target: T3, Hfq Y25D (distal face); assay: EMSA

B1: 3'ETSleuZ-U4 (structured_RNA)
RNA: GGCCCGGAUGGUGGAAUCGGUAGACACAAGGGAUUUAAAAUCCCUCGGCGUUCGCGCUGUGCGGGUUCAAGUCCCGCUCCGGGUACCAUGGGAAAGAUAAGAAUAAAAUCAAAGCAAUAAGCAGUGUCGUGAAACCACCUUCGGGUGGUUUU
Q: Does B1 bind (Hfq wt [1])?
A: binds

B2: AgvB (structured_RNA)
RNA: GGCGAUAACACAACAAUAUCAGUAUCUCAUGCUAUUGCCCGAACCCAUUCGGGCAUUUUU
Q: What does the source list for B2?
A: Kd (Hfq R16A (rim) [2]): 2.7 ± 0.12 nM; IC50 (Hfq wt [3]): 9.9 ± 2.7 nM; Kd (Hfq K56A (proximal face)): 27.2 ± 2.4 nM; IC50 (Hfq wt [4]): 3.2 ± 1.4 nM; Kd (Hfq Y25D (distal face) [5]): 0.13 ± 0.003 nM; Kd (Hfq wt [6]): 0.38 ± 0.06 nM

B3: 3'ETSleuZ (structured_RNA)
RNA: GGCCCGGAUGGUGGAAUCGGUAGACACAAGGGAUUUAAAAUCCCUCGGCGUUCGCGCUGUGCGGGUUCAAGUCCCGCUCCGGGUACCAUGGGAAAGAUAAGAAUAAAAUCAAAGCAAUAAGCAGUGUCGUGAAACCACCUUCGGGUGGUUUUUUU
Q: Which results are given for B3?
A: Kd (Hfq wt [7]): 0.22 ± 0.008 nM; IC50 (Hfq wt [3]): 39 ± 7.3 nM; binding result (Hfq R16A (rim) [8]): binds; IC50 (Hfq wt [4]): 2.8 ± 0.35 nM; Kd (Hfq Y25D (distal face) [9]): 0.34 ± 0.18 nM

B4: AgvB-U9 (structured_RNA)
RNA: GGCGAUAACACAACAAUAUCAGUAUCUCAUGCUAUUGCCCGAACCCAUUCGGGCAUUUUUUUUU
Q: Which Kd (Hfq wt [10]) does the source give for B4 here?
A: 0.18 ± 0.02 nM

Q: What about the Kd (Hfq R16A (rim) [11]) of the same binder?
A: 0.19 ± 0.02 nM

Q: What about the Kd (Hfq Y25D (distal face) [12]) of the same binder?
A: 0.12 ± 0.016 nM

B5: GcvB (structured_RNA)
RNA: GACUUCCUGAGCCGGAACGAAAAGUUUUAUCGGAAUGCGUGUUCUGGUGAACUUUUGGCUUACGGUUGUGAUGUUGUGUUGUUGUGUUUGCAAUUGGUCUGCGAUUCAGACCAUGGUAGCAAAGCUACCUUUUUUCACUUCCUGUACAUUUACCCUGUCUGUCCAUAGUGAUUAAUGUAGCACCGCCUAAUUGCGGUGCUUUUUUU
Q: Which results are given for B5?
A: IC50 (Hfq wt [3]): 23 ± 5.2 nM; Kd (Hfq Y25D (distal face) [13]): < 1 nM; Kd (Hfq wt [14]): < 1 nM; binding signal (Hfq R16A (rim) [15]): 30 fold weaker than wt Hfq

B6: AgvB-U0 (structured_RNA)
RNA: GGCGAUAACACAACAAUAUCAGUAUCUCAUGCUAUUGCCCGAACCCAUUCGGGCA
Q: Which results are given for B6?
A: Kd (Hfq R16A (rim) [16]): 3.9 ± 0.76 nM; Kd (Hfq Y25D (distal face) [17]): 21 ± 8 nM; Kd (Hfq wt [18]): 1.75 ± 0.6 nM

B7: RybB (structured_RNA)
RNA: GGCCACUGCUUUUCUUUGAUGUCCCCAUUUUGUGGAGCCCAUCAACCCCGCCAUUUCGGUUCAAGGUUGAUGGGUUUUUU
Q: Does B7 bind (Hfq Y25D (distal face) [19])?
A: binds
